Tested on: SKBR-3 cells
Test: HER2 ECD ELISA of conditioned media (HER2 shedding), SKBR-3 cells
Format: cell-based, human
Settings: 1 μg/ml
Experimental: BT 474, MCF-7, and SKBR-3 cells were maintained in high-glucose DMEM:Ham's F12 (50:50) supplemented with 10% heat-inactivated FBS and 2 mM L-Glutamine. […] Cell lines were maintained at 37° C. in a humidified incubator supplied with 5% CO2. BT 474 and SKBR-3 cells were transiently transfected with constructs as described by electroporation using kit V according to the manufacturer's instructions (AMAXA™).
Serum was diluted 1:50 using assay buffer (PBS/0.5% BSA, 0.05% TWEEN® 20/10 ppm PROCLIN® 300/0.2% BGG/0.25% CHAPS/0.15 M NaCl/5mM EDTA (pH 7.4) followed by additional 1:2 serial dilutions. Shed HER2 was captured using a goat anti-HER2 polyclonal antibody (Genentech) onto NUNC® Maxisorp plates and detected using a biotin-conjugated rabbit anti-HER2 polyclonal antibody (Genentech) followed by a AMDEX™-strepavidin-horseradish peroxidase antibody (Amersham Pharmacia Biotech) following a procedure described previously (Sias et al., J. Immunol. Meth. 109:219-27 (1990)). For cell culture experiments, cells were treated as indicated and conditioned media was collected and diluted in assay buffer serially 1:2. The concentration of shed HER2 in serum or in conditioned media was determined from a four-parameter fit of a standard curve using purified recombinant HER2 ECD protein (Genentech) as a standard.
The pSIREN shRNA construct(s) or vector alone were transiently transfected into SKBR-3 and BT 474 cells using AMAXA™ kit V following manufacturer's recommendations. After 48 hours, conditioned media was collected and assayed for shed HER2 by HER2 ELISA and the cells were lysed directly on the plate using 2×Sample buffer.

B1: Timp-3: naturally occurring peptides that regulate metalloprotease activity (protein, UniProt P35625 24-211, looked up)
Metalloproteinase inhibitor 3: CTCSPSHPQDAFCNSDIVIRAKVVGKKLVKEGPFGTLVYTIKQMKMYRGFTKMPHVQYIHTEASESLCGLKLEVNKYQYLLTGRVYDGKMYTGLCNFVERWDQLTLSQRKGLNYRYHLGCNCKIKSCYYLPCFVTSKNECLWTDMLSNFGYPGYQSKHYACIRQKGGYCSWYRGWAPPDKSIINATDP
  HER2 ECD levels in conditioned media: reduced HER2 ECD levels

Source: US20060177448A1, “Inhibiting HER2 shedding with matrix metalloprotease antagonists” (Genentech, Inc., priority 2005, published 2006)
